± gives the uncertainty stated by the source.
Assay: amyloid nucleation score (Sup35N fusion, yeast selection) (log enrichment); library NNK2; higher = more nucleation; inactive = no reads after selection
Outline: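 Peptides of 20 random codons, each fused to Sup35N, were expressed in psi-negative yeast. Cells were induced with 100 μM copper sulfate for 24 hours and grown 7 days at 30°C on medium lacking adenine and uracil, and plasmid inserts before and after selection were Illumina-sequenced. Nucleation scores are DiMSum log enrichments of output over input reads, centred on the mode score of non-aggregating sequences, and sequences under 100 input reads were excluded.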

Row | Substance | amyloid nucleation score
1 | VVRSHTLQNSALRCWSDG | 0.935 ± 0.39
2 | AYMYTMGYRSHHVTEVVVIW | -0.047 ± 0.49
3 | GYTIDWMGVLQSVVLCT | 0.524 ± 0.6
4 | GYMSYT | -0.863 ± 0.32
5 | SHYPKGCHWGGLHSGDRKFP | 0.892 ± 0.45
6 | CFAYSSWDTPDMMAWVCRWD | 0.154 ± 0.65
7 | ESGCQGNSLKCVLSRCNGWR | 3.45 ± 0.1
8 | LCSSVLGGNRETAECFRFDQ | -0.67 ± 0.34
9 | RDSVIYCCMMMKGTCAWLYL | inactive
10 | GRGYAAVLNWRLFDKDRGRI | 0.035 ± 0.28
11 | KRMKRLVCGTRVDMYRGSLW | -0.222 ± 0.33
12 | TRRWKALRP | 0.794 ± 0.2
13 | GARASQRCESVGLPLEYVSR | 0.974 ± 0.29
14 | EEWSYVDSEPSIRFSRIQDV | -0.516 ± 0.42
15 | TRLDVQLGHGIGSV | 0.092 ± 1.1
16 | SMTRLLGRDGYTREYSSSSR | 0.834 ± 0.55
17 | MGNSYIEVRSLYR | -0.578 ± 0.64
18 | DKVDLSA | 0.053 ± 1.1
19 | KLSNLSHDSYMLENALFALT | 2.52 ± 0.063
20 | FSTCYPPSDWVSRMASETLN | -0.096 ± 0.65
21 | TVFRFNIYDYFFVM | 4.27 ± 0.057
22 | MGCICWVDCKPYDFGMTVVM | -0.726 ± 0.49
23 | EGFHGRMCHEHGKVLKAID | 0.178 ± 0.24
24 | YLMSFGPWGNYYFRSCKLWL | 6.42 ± 0.082

Row | Substance | amyloid nucleation score
25 | PKGNSRYMRLIFDAQLSYTG | 1.25 ± 0.13
26 | YKFLLFFYVDTSYVMLFSGF | -0.887 ± 1.1
27 | YRRGRLSMRSVWTKGCKERM | inactive
28 | LLFPCFVTRSLVS | -0.871 ± 0.32
29 | GNFVHTYNIK | 0.526 ± 0.66
30 | DALQSSFTTLLLYNAIEDVY | -0.317 ± 0.35
31 | FYVNSWPSPLGTYWRGYNGR | 0.106 ± 1
32 | FWCINVSTWYNNQELI | inactive
33 | HYHTSISYR | 4.77 ± 0.1
34 | WRVATCCAGRTIIQLETRFG | 8.805 ± 0.058
35 | GTVGVGMS | 1.11 ± 0.66
36 | HPKAYARVTTK | -0.068 ± 0.36
37 | GFSEL | 0.306 ± 0.65
38 | NIQWLLQVDEDFKF | 1.58 ± 0.16
39 | SVLAAP | inactive
40 | RRVGTC | -0.097 ± 0.74
41 | QKLLWCYACNVMRARSGSGT | 7.18 ± 0.044
42 | RWFIDYHGSVFCFQKYIPPV | -0.526 ± 0.54
43 | ISLSLFRNGPIRMAKGSAWM | 6.081 ± 0.036
44 | VLVFEVPFMFNGAFTMGCIR | 7.075 ± 0.067
45 | FITNHK | inactive
46 | IWFSWAVCFMITFHSHTHWW | 0.598 ± 0.57
47 | APRGASALGCVYSDCSVVSI | 0.058 ± 1
48 | NGLSRLEVTNH | 0.052 ± 0.49

Row | Substance | amyloid nucleation score
49 | DLGHTYTSMYGFLTPSRDVD | -0.052 ± 0.5
50 | YSSAGDVMLNRQLDGCWLTR | -0.006 ± 0.53
51 | RVRNMS | 0.1 ± 0.32
52 | ELLGSLCRNRVGTWTICNMS | 0.52 ± 0.34
53 | RTVYFCQN | -1.5 ± 1.1
54 | YWYWWSSWY | 1.6 ± 0.29
55 | HTYVRVYLRGELCHPNCMNA | 6.348 ± 0.032
56 | KEAPFCASGLPD | -0.324 ± 1.1
57 | LWGYCTMLSEGH | -0.018 ± 0.2
58 | PSVKIRFQVAYWLYRSLMMS | 0.877 ± 0.55
59 | LLTTEQ | 1.29 ± 0.43
60 | SLQFPISVNTYGDESCNSTV | -0.424 ± 1.1
61 | NAYLFMFFRRGLWFSVLPFV | -1.09 ± 1.1
62 | FCREWDRSRQKG | 0.508 ± 0.25
63 | WGHFAMVRA | 0.426 ± 0.8
64 | YVATKYMRLNTCNLFWGGLT | 6.368 ± 0.05
65 | LSREFLNASL | -0.947 ± 0.49
66 | GSNHRSVVFIFLMLMGFMES | -0.205 ± 0.76
67 | FLSEFVRIGPYARS | inactive
68 | MSARECWTIRFPYRVIVWEV | 0.214 ± 0.74
69 | RRYKVDYTPSCIESPGVVLA | -1.19 ± 0.78
70 | LTHSRNLRKVRTNRNNETHV | 0.005 ± 1
71 | ILYGWGRMMCRPLPQGYWMV | 0.449 ± 0.28
